According to patent US20250270737A1, “Antibodies That Bind GLP1R” (Twist Bioscience Corporation, priority 2019, published 2025):
Substitutions are numbered along the chain they refer to.

B1: GLP1R-243: GLP1R scFv clone reformatted to IgG2; CDR-H3 SEQ ID NO 2301, heavy 2308, light 2315 (antibody)
heavy: MEWSWVFLFFLSVTTGVHSQVQLVQSGAEVKKPGSSVKVSCKASGGTFSTYGINWVRQAPGQGLEWMGGIIPIFGTANYAQKFQGRVTITADESTSTAYMELSSLRSEDTAVYYCARANQHFFGKGDNLAARDFINWLIQTKITDGSNPGYHYYGMDVWGQGTLVTVSSASASTKGPSVFPLAPCSRSTSESTAALGCLVKDYFPEPVTVSWNSGALTSGVHTFPAVLQSSGLYSLSSVVTVPSSNFGTQTYTCNVDHKPSNTKVDKTVERKCCVECPPCPAPPVAGPSVFLFPPKPKDTLMISRTPEVTCVVVDVSHEDPEVQFNWYVDGVEVHNAKTKPREEQFNSTFRVVSVLTVVHQDWLNGKEYKCKVSNKGLPAPIEKTISKTKGQPREPQVYTLPPSREEMTKNQVSLTCLVKGFYPSDIAVEWESNGQPENNYKTTPPMLDSDGSFFLYSKLTVDKSRWQQGNVFSCSVMHEALHNHYTQKSLSLSPG
light: MSVPTQVLGLLLLWLTDARCQSVLTQPPSVSAAPGQKVTISCSGSRSNIGKNYVSWYQQLPGTAPKLLIYENNERPSGIPDRFSGSKSGTSATLGITGLQTGDEADYYCSSYTTSNTQVFGGGTKLTVLGQPKAAPSVTLFPPSSEELQANKATLVCLISDFYPGAVTVAWKADSSPVKAGVETTTPSKQSNNKYAASSYLSLTPEQWKSHRSYSCQVTHEGSTVEKTVAPTECS
B2: GLP1R-240: GLP1R scFv clone reformatted to IgG2; CDR-H3 SEQ ID NO 2298, heavy 2305, light 2312 (antibody)
heavy: MEWSWVFLFFLSVTTGVHSQVQLVQSGAEVKKPGSSVKVSCKASGGTFNNYGISWVRQAPGQGLEWMGGIIPVFGTANYAQKFQGRVTITADESTSTAYMELSSLRSEDTAVYYCARDMYYDFFGLGTFTSDVSSYLEGQAAKEFIAWLVKGVSPEVVPADDAFDIWGQGTLVTVSSASASTKGPSVFPLAPCSRSTSESTAALGCLVKDYFPEPVTVSWNSGALTSGVHTFPAVLQSSGLYSLSSVVTVPSSNFGTQTYTCNVDHKPSNTKVDKTVERKCCVECPPCPAPPVAGPSVFLFPPKPKDTLMISRTPEVTCVVVDVSHEDPEVQFNWYVDGVEVHNAKTKPREEQFNSTFRVVSVLTVVHQDWLNGKEYKCKVSNKGLPAPIEKTISKTKGQPREPQVYTLPPSREEMTKNQVSLTCLVKGFYPSDIAVEWESNGQPENNYKTTPPMLDSDGSFFLYSKLTVDKSRWQQGNVFSCSVMHEALHNHYTQKSLSLSPG
light: MSVPTQVLGLLLLWLTDARCQSVLTQPPSVSAAPGQKVTISCSGSSSSIGNNYVSWYQQLPGTAPKLLIYANNKRPSGIPDRFSGSKSGTSATLGITGLQTGDEADYYCATWSSSPRGWVFGGGTKLTVLGQPKAAPSVTLFPPSSEELQANKATLVCLISDFYPGAVTVAWKADSSPVKAGVETTTPSKQSNNKYAASSYLSLTPEQWKSHRSYSCQVTHEGSTVEKTVAPTECS
B3: GLP1R-241: GLP1R scFv clone reformatted to IgG2; CDR-H3 SEQ ID NO 2299, heavy 2306, light 2313 (antibody)
heavy: MEWSWVFLFFLSVTTGVHSQVQLVQSGAEVKKPGSSVKVSCKASGGTFSDYAISWVRQAPGQGLEWMGGIIPIFGTTNYAQKFQGRVTITADESTSTAYMELSSLRSEDTAVYYCAKHMSMQGSVAGGTFTSDVSSYLEGQAAKEFIAWLVKGGPSFIRADLVGDAFDVWGQGTLVTVSSASASTKGPSVFPLAPCSRSTSESTAALGCLVKDYFPEPVTVSWNSGALTSGVHTFPAVLQSSGLYSLSSVVTVPSSNFGTQTYTCNVDHKPSNTKVDKTVERKCCVECPPCPAPPVAGPSVFLFPPKPKDTLMISRTPEVTCVVVDVSHEDPEVQFNWYVDGVEVHNAKTKPREEQFNSTFRVVSVLTVVHQDWLNGKEYKCKVSNKGLPAPIEKTISKTKGQPREPQVYTLPPSREEMTKNQVSLTCLVKGFYPSDIAVEWESNGQPENNYKTTPPMLDSDGSFFLYSKLTVDKSRWQQGNVFSCSVMHEALHNHYTQKSLSLSPG
light: MSVPTQVLGLLLLWLTDARCQSVLTQPPSVSAAPGQKVTISCSGISSNIGNNYVSWYQQLPGTAPKLLIYDDDQRPSGIPDRFSGSKSGTSATLGITGLQTGDEADYYCGTWDNILSAAVFGGGTKLTVLGQPKAAPSVTLFPPSSEELQANKATLVCLISDFYPGAVTVAWKADSSPVKAGVETTTPSKQSNNKYAASSYLSLTPEQWKSHRSYSCQVTHEGSTVEKTVAPTECS
B4: GLP1R-242: GLP1R scFv clone reformatted to IgG2; CDR-H3 SEQ ID NO 2300, heavy 2307, light 2314 (antibody)
heavy: MEWSWVFLFFLSVTTGVHSQVQLVQSGAEVKKPGSSVKVSCKASGGTFSSYEISWVRQAPGQGLEWMGGIIPILGIANYAQKFQGRVTITADESTSTAYMELSSLRSEDTAVYYCAKHMSMQADTGTFTSDVSSYLEGQAAKEFIAWLVKGEFSSRADLVGDAFDVWGQGTLVTVSSASASTKGPSVFPLAPCSRSTSESTAALGCLVKDYFPEPVTVSWNSGALTSGVHTFPAVLQSSGLYSLSSVVTVPSSNFGTQTYTCNVDHKPSNTKVDKTVERKCCVECPPCPAPPVAGPSVFLFPPKPKDTLMISRTPEVTCVVVDVSHEDPEVQFNWYVDGVEVHNAKTKPREEQFNSTFRVVSVLTVVHQDWLNGKEYKCKVSNKGLPAPIEKTISKTKGQPREPQVYTLPPSREEMTKNQVSLTCLVKGFYPSDIAVEWESNGQPENNYKTTPPMLDSDGSFFLYSKLTVDKSRWQQGNVFSCSVMHEALHNHYTQKSLSLSPG
light: B3 light with I45S, G50E, Y53D, D71G, D72N, I115T, A119G
B5: GLP1R-244: GLP1R scFv clone reformatted to IgG2; CDR-H3 SEQ ID NO 2302, heavy 2309, light 2316 (antibody)
heavy: MEWSWVFLFFLSVTTGVHSQVQLVQSGAEVKKPGSSVKVSCKASGGTFSSYAISWVRQAPGQGLEWMGGIIPIFGTANYAQKFQGRVTITADESTSTAYMELSSLRSEDTAVYYCARANQHFAATGAGEGQAAKEFIAWLVKGRVEIGYHYYGMDVWGQGTLVTVSSASASTKGPSVFPLAPCSRSTSESTAALGCLVKDYFPEPVTVSWNSGALTSGVHTFPAVLQSSGLYSLSSVVTVPSSNFGTQTYTCNVDHKPSNTKVDKTVERKCCVECPPCPAPPVAGPSVFLFPPKPKDTLMISRTPEVTCVVVDVSHEDPEVQFNWYVDGVEVHNAKTKPREEQFNSTFRVVSVLTVVHQDWLNGKEYKCKVSNKGLPAPIEKTISKTKGQPREPQVYTLPPSREEMTKNQVSLTCLVKGFYPSDIAVEWESNGQPENNYKTTPPMLDSDGSFFLYSKLTVDKSRWQQGNVFSCSVMHEALHNHYTQKSLSLSPG
light: B3 light with I45S, Y53V, D72N, Q74K, P76R, T111S, N114T, I115S, A118V, A119W
B6: GLP1R-238: GLP1R scFv clone reformatted to IgG2; CDR-H3 SEQ ID NO 2296, heavy 2303, light 2310 (antibody)
heavy: MEWSWVFLFFLSVTTGVHSQVQLVQSGAEVKKPGSSVKVSCKASGGSFSSHAISWVRQAPGQGLEWMGGIIPIFGAPNYAQKFQGRVTITADESTSTAYMELSSLRSEDTAVYYCARANQHFSQAGRAARVPGPSSSLGPRGYHYYGMDVWGQGTLVTVSSASASTKGPSVFPLAPCSRSTSESTAALGCLVKDYFPEPVTVSWNSGALTSGVHTFPAVLQSSGLYSLSSVVTVPSSNFGTQTYTCNVDHKPSNTKVDKTVERKCCVECPPCPAPPVAGPSVFLFPPKPKDTLMISRTPEVTCVVVDVSHEDPEVQFNWYVDGVEVHNAKTKPREEQFNSTFRVVSVLTVVHQDWLNGKEYKCKVSNKGLPAPIEKTISKTKGQPREPQVYTLPPSREEMTKNQVSLTCLVKGFYPSDIAVEWESNGQPENNYKTTPPMLDSDGSFFLYSKLTVDKSRWQQGNVFSCSVMHEALHNHYTQKSLSLSPG
light: MSVPTQVLGLLLLWLTDARCQSVLTQPPSVSAAPGQKVTISCSGSTSNIANNYVSWYQQLPGTAPKLLIYANNRRPSGIPDRFSGSKSGTSATLGITGLQTGDEADYYCGAWDVRLDVGVFGGGTKLTVLGQPKAAPSVTLFPPSSEELQANKATLVCLISDFYPGAVTVAWKADSSPVKAGVETTTPSKQSNNKYAASSYLS

Tests used:
[1] = molecular target: GLP1R (Homo sapiens, UniProt P43220); assay: Binding assay with flow cytometry on flag-GLP1R-GFP expressing CHO cells (CHO-GLP1R); details: 100 nM IgG
Description: (§1) Briefly, flag-GLP1R-GFP expressing CHO cells (CHO-GLP1R) and CHO-parent cells were incubated with 100 nM IgG for 1 hour on ice, washed three times and incubated with Alexa 647 conjugated goat-anti-human antibody (1:200) for 30 minutes on ice, followed by three washes. All incubations and washes were performed in buffer containing PBS and 0.5% BSA. For titrations, IgG was serially diluted 1:3 starting from 100 nM. […] Analyses of binding assays with IgG titrations presented as binding curves plotting IgG concentrations against MFI (mean fluorescence intensity) are seen in FIGS. 15A-15H. Flow cytometry data of binding assays presented as dot plots with 100 nM IgG are seen in FIGS. 16A-16I.
(§2) The GLP1R IgGs were then assayed in binding assays coupled to flow cytometry analysis using similar methods as described in Example 12. Briefly, stably expressing Flag-GLP1R-GFP CHO cells or CHO-parent cells were incubated with primary IgG (100 nM or 1:3 titrations). Secondary antibody incubation involved Alexa 647 conjugated goat-anti-human IgG. Flow cytometry measured the GFP signal against the Alexa 647 signal to identify IgGs that specifically bound to the target (GLP1R).

[2] = Thermal ramp stability (Tm and Tagg), UNcle platform; format: physicochemical
Excerpt: The GLP1R IgGs were characterized for thermal ramp stability (Tm and Tagg). The UNcle platform was used to characterize the IgGs and the data is seen in Table 21.

[3] = system: CHO-parent cells; assay: Binding assay with flow cytometry on CHO-parent cells; details: 100 nM IgG
Description: as §1, §2

GLP1R, sequence (P43220 24-463): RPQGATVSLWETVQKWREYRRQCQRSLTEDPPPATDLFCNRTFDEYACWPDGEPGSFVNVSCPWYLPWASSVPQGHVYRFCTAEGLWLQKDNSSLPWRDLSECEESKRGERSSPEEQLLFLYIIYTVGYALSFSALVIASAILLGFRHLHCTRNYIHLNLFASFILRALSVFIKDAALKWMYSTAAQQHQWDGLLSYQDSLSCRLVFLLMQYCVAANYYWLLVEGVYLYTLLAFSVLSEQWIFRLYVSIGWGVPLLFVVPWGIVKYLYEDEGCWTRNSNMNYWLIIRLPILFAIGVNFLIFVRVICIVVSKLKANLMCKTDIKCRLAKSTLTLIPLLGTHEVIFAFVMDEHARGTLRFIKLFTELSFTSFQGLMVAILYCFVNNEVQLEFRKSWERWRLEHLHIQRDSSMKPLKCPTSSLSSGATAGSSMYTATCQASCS

Molecule	binding to CHO-GLP1R [1]	also measured
B1	found to bind to CHO-GLP1R	–
B2	found to bind to CHO-GLP1R	–
B3	found to bind to CHO-GLP1R	Average Tagg 266 [2]: 65.9 °C; Average Tm2 [2]: 75.7 °C; Average Tml [2]: 68.2 °C
B4	found to bind to CHO-GLP1R	–
B5	found to bind to CHO-GLP1R	–
B6	found to bind to CHO-GLP1R	binding to CHO-parent cells versus CHO-GLP1R (specificity) [3]: bound equally to CHO-GLP1R and CHO-parent cells
